Assay [1] deals with T1, Ruminococcus flavefaciens strain 17 (Siijpesteijn 1948) xylose isomerase, native (XI-R), SEQ ID NO: 31 (gene SEQ ID NO: 29/30) (Ruminococcus flavefaciens, UniProt Q9S306).
T1 construct: made in house; host or cells: Saccharomyces cerevisiae BY4742 (p426GPD); soluble whole cell extract, not purified
T1 sequence (Q9S306 1-438): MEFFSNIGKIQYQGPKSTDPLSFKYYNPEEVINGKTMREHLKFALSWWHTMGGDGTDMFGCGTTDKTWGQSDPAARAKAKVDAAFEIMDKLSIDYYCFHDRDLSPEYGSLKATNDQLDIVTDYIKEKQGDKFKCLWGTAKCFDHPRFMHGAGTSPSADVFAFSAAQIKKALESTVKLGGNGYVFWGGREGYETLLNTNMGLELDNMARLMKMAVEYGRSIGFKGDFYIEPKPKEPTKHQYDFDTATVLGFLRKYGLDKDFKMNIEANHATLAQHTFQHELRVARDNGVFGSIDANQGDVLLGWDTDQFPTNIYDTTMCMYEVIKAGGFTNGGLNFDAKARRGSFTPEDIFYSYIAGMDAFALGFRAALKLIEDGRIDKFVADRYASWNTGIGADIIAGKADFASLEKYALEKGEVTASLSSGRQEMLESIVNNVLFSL
Kind of assay: Xylose isomerase kinetics (SDH-coupled, NADH, A340), with and without xylitol. It is filed as biochemical. Conditions: about 0 to about 50 mM xylitol; pH 7.5, about 30° C. The procedure: (§1) About 20 μg of soluble whole cell extract was incubated in the presence of 100 mM Tris, pH 7.5, 10 mM MgCl2, 0.15 mM NADH (Sigma, St. Louis, Mo.), and about 2 U sorbitol dehydrogenase (Roche) at about 30° C. […] A Beckman DU-800 was utilized with an Enzyme Mechanism software package (Beckman Coulter, Inc.), and the change in the A340 was monitored for 2-3 minutes.
(§2) Approximately 20 μg of soluble whole cell extract from each transformed cell line, prepared using Y-PER plus reagent as described above, was incubated in a solution containing about 100 mM Tris, pH 7.5, 10 mM MgCl ? 2, 0.15 mM NADH (Sigma, St. Louis, Mo.), and 2 U Sorbitol Dehydrogenase (SDH) (Roche, Indianapolis, Ind.) at about 30° C. […] A Beckman DU-800 spectrophotometer was utilized with an Enzyme Mechanism software package (Beckman Coulter, Inc, Brea, Calif.), and the change in the A340 was monitored for 2-3 minutes. […]
(§3) Approximately 20 μg of soluble whole cell extract from each transformed cell line was prepared using Y-PER plus reagent as described above was incubated in a solution containing about 100 mM Tris, pH 7.5, 10 mM MgCl ? […] A Beckman DU-800 spectrophotometer was utilized with an Enzyme Mechanism software package (Beckman Coulter, Inc, Brea, Calif.), and the change in the A340 was monitored for 2-3 minutes.

Assay [2] has as its target T2, Piromyces strain E2 xylose isomerase, native (XI-P), SEQ ID NO: 35 (gene SEQ ID NO: 34) (Piromyces sp. E2, UniProt A0ACD6B9F5).
T2 construct: soluble whole cell extract; SDH-coupled
Described as above. It is filed as biochemical. The note with it: about 0 to about 50 mM xylitol; pH 7.5, about 30° C. The procedure:
as §1, §2, §3

The target in assay [3] is T3, Ruminococcus flavefaciens xylose isomerase, codon-optimized gene variant (XI-R-COOP), gene SEQ ID NO: 33 (Ruminococcus flavefaciens, UniProt Q9S306).
T3 sequence (Q9S306 1-438): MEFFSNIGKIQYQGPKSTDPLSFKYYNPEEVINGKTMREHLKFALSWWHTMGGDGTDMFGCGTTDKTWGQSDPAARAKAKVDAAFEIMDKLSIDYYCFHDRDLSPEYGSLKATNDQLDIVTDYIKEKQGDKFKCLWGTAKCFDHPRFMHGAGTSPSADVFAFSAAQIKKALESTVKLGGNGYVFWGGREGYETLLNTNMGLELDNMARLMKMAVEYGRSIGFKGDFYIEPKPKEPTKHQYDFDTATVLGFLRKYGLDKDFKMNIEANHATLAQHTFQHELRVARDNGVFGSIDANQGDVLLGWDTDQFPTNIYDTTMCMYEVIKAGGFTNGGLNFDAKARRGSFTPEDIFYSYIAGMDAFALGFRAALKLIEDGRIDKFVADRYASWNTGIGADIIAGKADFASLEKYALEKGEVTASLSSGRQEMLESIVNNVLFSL
Described as above. It is filed as biochemical. Conditions: xylose about 40 to about 500 mM; pH 7.5, about 30° C. The procedure:
An additional variant of the native R. flavefaciens xylose isomerase gene (XI-R-COOP) was prepared in which all of the codons were optimized for expression in Saccharomyces cerevisiae. This variant gene was synthesized by IDT DNA Inc. and the sequence is set forth below as SEQ ID NO: 33.

Assay [4] concerns Ruminococcus flavefaciens FD-1 (Ruminococcus_FD1) xylose isomerase, SEQ ID NO: 110. Kind of assay: Kinetics of additional xylose isomerase candidates (Km and specific activity). It is filed as biochemical. The note with it: xylose 40 to 500 nM; crude S. cerevisiae extract. The text has this: The results are show in FIG. 25.
In assay [5] the test system is xylose. Kind of assay: Industrial yeast strain BF903 with Ruminococcus xylose isomerase: aerobic growth and xylose consumption on YP-xylose. It is filed as cell-based, Saccharomyces cerevisiae. Conditions: commercial yeast strain BF903, YP-xylose, 30° C., 7 days, FIG. 11. The procedure:
A commercially available industrial diploid strain of Saccharomyces cerevisiae (strain BF903; “Stillspirits” triple distilled yeast, Brewcraft, Albany, New Zealand; available at Hydrobrew, Oceanside, Calif.) was obtained and was made competent for transformation using known yeast cell transformation procedures. […] Transformed yeast containing each construct were grown overnight aerobically in a 15 ml culture tube on YPD media containing 2% glucose. After about 24 hours, about 25 ml of YP media containing 2% glucose and 100 μg/ml G418 was seeded with the cells at an initial OD600 of 0.5 in a 250 ml Erlenmeyer flask and grown aerobically at 30° C. The cultures were then passaged once every 7 days into fresh media, also at an initial OD600 of 0.5.
Measurements were taken of the cell optical density (OD600) to assess cell density and plated onto YPD with 100 μg/ml G418 to ensure that the plasmid was stable. […] The strains were then grown overnight in YPD (with 100 μg/ml G418) and used to inoculate about 50 ml YP-xylose (with 100 μg/ml G418) into disposable 250 ml Erlenmeyer flasks with vented caps at an initial OD600 of about 1. The cultures were allowed to grow aerobically at 30° C. at 200 rpm for 7 days.

Assay [6] deals with xylose. The experiment in a line: In vivo evaluation of xylose isomerase constructs in C5 strain: xylose fermentation, aerobic then anaerobic (ethanol, xylose, glucose, OD600, dry cell weight). It is filed as cell-based, Saccharomyces cerevisiae. The note with it: final sample at 372 hours. The source says: The engineered strain was designed to include the following genetic modifications: the native Pho13 gene (alkaline phosphatase specific for p-nitrophenyl phosphate) was disrupted by inserting a construct containing the native TLK1 gene (Transketolase-1); the native aldose reductase gene (Gre3) was disrupted by inserting a construct containing the native high-affinity glucose transporter-7 gene (HXT7); the native glucose-repressible alcohol dehydrogenase II gene (adh2) was disrupted by inserting a construct containing the native xylulokinase gene (XYLK); and the native orotidine-5′ phosphate decarboxylase gene (ura3) was disrupted by inserting a construct containing the native transaldolase 1 gene (TAL1). The resulting strain had the following genotype: pho13::TKL1, gre3::HXT7, adh-2::XYLK, ura3::TAL1.
The C5 strain was transformed using standard protocols with either p426GPD (as a control) or the chimeric variants XI-R, XI-Rp5, XI-Rp10, or XI-Rp15. The transformed cells were grown on SC-glucose minus uracil initially and then passaged onto SC-xylose minus uracil. Cultures of each of the above constructs were made in SC-xylose minus uracil—and grown for one week. The cultures were grown aerobically at 30° C. with 250 rpm agitation, 1 vvm sparge of process air, 21% O2. The pH was controlled at about 5.0 with 1N NaOH. […] At 24 hours elapsed fermentation time the fermentation was switched to anaerobic conditions. […] Oxygen was purged with 100% N2 sparge at 1 vvm until percent O2 was below 1%. Aeration was then set at 0.25 vvm 100% N2.
The final sample also measured biomass by dry cell weight.

The subject of assay [7] is xylose. Kind of assay: Industrial yeast strain BF903 with Ruminococcus xylose isomerase: sealed serum bottles on YP plus xylose (xylose utilization, ethanol, cell growth). Conditions: FIG. 12. Type of assay: cell-based, Saccharomyces cerevisiae. The procedure: The serum bottles were sealed with a butyl rubber stopper to prevent air exchange. As a result, the cultures became anaerobic once the available oxygen in the serum bottle was utilized. In general, anaerobiosis (e.g., the onset of anaerobic conditions) occurred a few hours after the culture was inoculated. Xylose utilization, ethanol production and cell growth were measured every twenty four hours.

Assay [8] deals with xylose isomerase activity. The experiment in a line: Heterologous xylose isomerase expression in engineered yeast (active yes/no). Conditions: xylose isomerase of the donor organism expressed in engineered yeast (S. cerevisiae).

“And” between values parts separate entries of the source, which are not always exact repeats. Equal entries are not always repeated.

The term Ki denotes a dissociation constant, usually derived from enzyme kinetics or from competition with a known ligand. Read a high Ki as a looser hold on the target. As a reminder, the Km is the concentration of substrate that gives half-maximal velocity.

T2 sequence (A0ACD6B9F5 1-437): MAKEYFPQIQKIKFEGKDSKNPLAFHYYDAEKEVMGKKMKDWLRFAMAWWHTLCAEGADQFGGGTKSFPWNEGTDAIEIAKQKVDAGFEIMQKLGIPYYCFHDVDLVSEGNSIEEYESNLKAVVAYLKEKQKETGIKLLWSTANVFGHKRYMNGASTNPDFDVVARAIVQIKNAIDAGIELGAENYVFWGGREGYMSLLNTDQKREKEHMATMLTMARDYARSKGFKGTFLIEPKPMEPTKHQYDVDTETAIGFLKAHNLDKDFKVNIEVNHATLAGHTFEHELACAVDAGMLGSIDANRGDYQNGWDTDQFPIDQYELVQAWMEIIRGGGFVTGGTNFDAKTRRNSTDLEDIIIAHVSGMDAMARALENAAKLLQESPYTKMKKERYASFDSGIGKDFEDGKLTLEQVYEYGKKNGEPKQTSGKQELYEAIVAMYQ

As for `OC[C@@H](O)[C@H](O)[C@@H](O)CO` [xylitol], the Ki in assay [1] came out at 43.6 mM; in assay [2], 4.79 mM.
For `OC1OC[C@@H](O)[C@H](O)[C@H]1O` (some centres unmarked) [xylose], the figures for the Km in assay [3] and in assay [4] were 100 mM and 71.9 mM, respectively.

B1: Ruminococcus flavefaciens: native xylose isomerase from Ruminococcus flavefaciens strain 17 (SEQ ID NO: 31) (protein, listed as Ruminococcus flavefaciens)
chain: MEFFSNIGKIQYQGPKSTDPLSFKYYNPEEVINGKTMREHLKFALSWWHTMGGDGTDMFGCGTTDKTWGQSDPAARAKAKVDAAFEIMDKLSIDYYCFHDRDLSPEYGSLKATNDQLDIVTDYIKEKQGDKFKCLWGTAKCFDHPRFMHGAGTSPSADVFAFSAAQIKKALESTVKLGGNGYVFWGGREGYETLLNTNMGLELDNMARLMKMAVEYGRSIGFKGDFYIEPKPKEPTKHQYDFDTATVLGFLRKYGLDKDFKMNIEANHATLAQHTFQHELRVARDNGVFGSIDANQGDVLLGWDTDQFPTNIYDTTMCMYEVIKAGGFTNGGLNFDAKARRGSFTPEDIFYSYIAGMDAFALGFRAALKLIEDGRIDKFVADRYASWNTGIGADIIAGKADFASLEKYALEKGEVTASLSSGRQEMLESIVNNVLFSL
Take B1: the “xylose consumption versus vector control” value in the assay on xylose [5] is reported as “more efficient at consuming xylose”. Also, the “Glucose” value with xylose [6] was determined as 0 g/L. In the assay with xylose [6] (listed as XI-R), the “Ethanol” value was 15.65 g/L and 15.5 g/L; the “Xylose” value is 3.14 g/L and 3.85 g/L. For the same molecule, in the assay with xylose [7], the “cell density versus vector only control” value is “grew to a higher cell density” and the “ethanol production from xylose versus vector only control” value was “produced more ethanol”. The “Active? (yes/no)” value in assay [8] is on record as “Yes”.

These data come from patent US20110165660A1, “ENGINEERED MICROORGANISMS WITH ENHANCED FERMENTATION ACTIVITY” (VERDEZYNE, INC., priority 2009, published 2011).
